This sample holds only a part of the variants without activity.
B1: TPR 5TU (parent)
chain: GGAUCUUCUCGAUCUAACAAAAAAGACAAAUCUGCCACAAAGCUUGAGAGCAUCUUCGGAUGCAGAGGCGGCAGCCUUCGGUGGCGCGAUAGCGCCAACGUUCUCAACUAUGACACGCAAAACGCGUGCUCCGUUGAAUGGAGUUUAUCAUG

Variants of: B1
Assay: polymerase ribozyme fitness, log enrichment relative to wild type (log ratio); higher = more active; in vitro selection for triplet polymerase activity
Summary of the method: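 Fitness compares each genotype's enrichment to that of the wild type on a logarithmic scale, averaging replicates with inverse-variance weights. The logarithm is base 2. Enrichment came from Illumina sequencing of input and output libraries after one triplicate round of in vitro selection, which included frozen incubation at −7 °C, of PCR-built, transcribed mutant libraries of each subunit of a heterodimeric triplet polymerase ribozyme. Only genotypes with ≥10 input reads and ≥1 read per output were kept.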

Variant | polymerase ribozyme fitness (log ratio)
GGAUCUUCUCGAUCUAACAAAAAAGACAAAUCUGCCACAAAGCUUGAGGGCAUCUUCGGAUGCAGAGGCGGCAGCCUUCGGUGGCGGGAUAGCGCCAACGUUCUCAACUAUGACACGCAAAACGCGUGCUCCGUUGAAUGGAGUUUAUCAUG | -4.02
GGAUCUUCUCGAUCUAACAAAAAAGACAAAUCUGCCACAAAGCUUGAGGCCAUCUUCGGAUGCAGAGGGGGCAGCCUUCGGUGGCGCGAUAGCGCCAACGUUGUCAACUAUGACACGCAAAACGCGUGCUCCGUUUAAUGGAGUUUAUCAUG | ≤ -4.2
GGAUCUUCUCGAUCUAACAAAAAAGACAAAUCUGCCACAAAGCUUGAGGGCGUCCUCGGAUGCAGAGGCGGCAGCCUUCGGUGACGCGAUCGCGCCAAGGGUCUCAACUAUGACACGCAAAACGCGUGCUCCGUUGAAUGGAGUUUAUCAUG | ≤ -4.2
GGAUCUUCUCGAUCUAACAAAAAAGACAAAUCUGCCACAAAGCUUGAGGGCAUCUUCGGAUGCAGAGGCGGCAGACUUCGGUGGCGCGAUAGCGCCAACGUUCUCAACUAUGACACGCAAAACGCGUGCUCCGUUUACUGGAGUUUAUCAUG | ≤ -4.2
GGAUCUUCUCGAUCUAACAAAAAAGACAAAUCUGCCACAAAGCUUGAGGGCAUCUUUGGAUGCAGAGGCGGCAGCCUUCGGUGGCGCGAUAGCGCCAACGUUCUCAACUAUGACACGCAAAACGCGUGCUCCGUUGAAUGGAGUUUAUCAUG | -0.525
GGAUCUUCUCGAUCUAACAAAAAAGACAAAUCUGCCACAAAGCUUGAGGGCAUCUUCGGAUGCAGAGGCGGCAGCCUUCGGUGGCGCGAUAGAGCCAACGUUCUCAACUAUGACACGCAAAACGCGUGCUCCGUUGAAUGGAGUUUAUCAUG | -3.6
GGAUCUUCUCGAUCUAACAAAAAAGACAAAUCUGCCACAAAGCUUGAGGGCAUCUUCGGAUGCAGAGGCGGCAGCCUUCGGUGGCGCGAUAACGCCAACGUUCUCAACUAUGACACGCAAAACGCGUGCUCCGUUGAAUGGAGUUUAUCAUG | -3.9
GGAUCUUCUCGAUCUAACAAAAAAGACAAAUCUGCCACAAAGCUUGAGGGCAUCUUCGGAUGCAGAGGCGGCAGCCUUCGGUGGCGCGAUACCGCCAACGUUCUCAACUAUGACACGCAAAACGCGUGCUCCGUUGAAUGGAGUUUAUCAUG | -2.39
GGAUCUUCUCGAUCUAACAAAAAAGACAAAUCUGCCACAAAGCUUGAGGGGAGCUUCGGAUGCAGAGGCGGCAGCCUUUGGUGGCGCGAUAGCGCCAACGUUCUCAACUAUGACACGUAAAACGCGUGCUCCGUUGAAUGGAGUUUAUCAUG | ≤ -4.2
GGAUCUUCUCGAUCUAACAAAAAAGACAAAUCUGCCACAAAGCUUGAGGGCAUCUUCGGAAGCAGAGGCGACAGCCUUCGGUGGCGCGACAGCACCAACGUUCUCAACUAUGACACGCGAAACGCGUGCUCCGUUGAAUGGAGUUUAUCAUG | ≤ -4.2
GGAUCUUCUCGAUCUAACAAAAAAGACAAAUCUGCCACAAAGCUUGAGCGCAUCUUCGGAUGCAGAGGCGGCAGCCUUCGGUCGCGCGACAGCGCCAACGUUCUCAACUAUGACACGCAAAGCGCGUGCUCCGUUGAAUGGAGUUUAUCAUG | ≤ -4.2
GGAUCUUCUCGAUCUAACAAAAAAGACAAAUCUGCCACAAAGCUUGAGGCCAUCUUCGGAUGCAGAGGCGGCAGCCAUCGGUGGCGCGAUAACGCCAACGUUGUCAACUAUGACACUCAAAACGCGUGCUCCGUUGAAUGGAGUUUAUCAUG | ≤ -4.2
GGAUCUUCUCGAUCUAACAAAAAAGACAAAUCUGCCACAAAGCUUGAGGGCAUCUUCGCAUGCAGAGGCGGCAGCCGUCGGUGGCGCGAUAGCGCCAACGUUCUCAACUAUGACACGCAAAACGCGUGCUCCGUUGAAAGGAGUUUAUCAUG | ≤ -4.2
GGAUCUUCUCGAUCUAACAAAAAAGACAAAUCUGCCACAAAGCUUGAGGCCAUCUUCGGAUGCAGAGGCGACAGCCUUCGGUGGCGCGAUUGCGCCAACGUUCUCAACUAUGACACGCAAAACGCGUGCUCCGUUGAAUGGAGUUUAUCAAG | ≤ -4.2
GGAUCUUCUCGAUCUAACAAAAAAGACAAAUCUGCCACAAAGCUUGAGCGCAUCUUCGGAUGCAGAGGCGGCAGCCUUCGUUGGCGCGAUAGGGCCAACGUUCUCAACUAUGACACGCAAAACGCGUGCUCCGUUGAAUGGAGUUUAUCAUG | ≤ -4.2
GGAUCUUCUCGAUCUAACAAAAAAGACAAAUCUGCCACAAAGCUUGAGGGCAUCUUCGGAUGCAGAGGCGGCAGCCUUCGGUGGCGCGAUUGCGCCAACGUUCUCAACUAUGACACGCAAAACUCGUGCUCCGUUGAAUGCAGUUUAGCAUG | ≤ -4.2
GGAUCUUCUCGAUCUAACAAAAAAGACAAAUCUGCCACAAAGCUUGAGGGCAUCUUCGGAUGCAGAGGCGGCAGCCUUCGGUGGUGCGAUAGCGCCAACGUUCUCAACUAUGACACGCAAAACGCGUGCUCCGUUGAAUGGAGUUUAUCAUG | -0.982
GGAUCUUCUCGAUCUAACAAAAAAGACAAAUCUGCCACAAAGCUUGAGGGCAUCUUCGGAUGCAGAGGCGGCAGCCUUCGGUGGAGCGAUAGCGCCAACGUUCUCAACUAUGACACGCAAAACGCGUGCUCCGUUGAAUGGAGUUUAUCAUG | -2.52
GGAUCUUCUCGAUCUAACAAAAAAGACAAAUCUGCCACAAAGCUUGAGCGCAUCUUCGGAUGCAGAGGCGGCAGCCUUCGGUGGCGCUAUAGCGCCAACGUUCUCUACUAUGACACGCAAAACGCGUGCUCCGUUGAAUGGAGUUUAUCAUG | ≤ -4.2

Variant | polymerase ribozyme fitness (log ratio)
GGAUCUUCUCGAUCUAACAAAAAAGACAAAUCUGCCACAAAGCUUGAGGGCAUCUUCGGAUGCAGAGGCGGCAGCCUUCGGUCGCGCGAUAGCGCCAACGUUCUCAACUAUGACACGCAAAACGCGUGCUCCGUUGAAUGGAGUUUAUCAUG | -1.21
GGAUCUUCUCGAUCUAACAAAAAAGACAAAUCUGCCACAAAGCUUGAGGGCAUCUUCGGAUGCAGAGGCGGCAGCCUUCGGUGGCGCGAUGUCGCCAACGUUCUCAACUAUGACACGCAAAACGCGUGCUCCGUUGAUUGGAGCUUAUCAUG | ≤ -4.2
GGAUCUUCUCGAUCUAACAAAAAAGACAAAUCUGCCACAAAGCUUGAGGGCAUCUUCGGAUGCAGAGGCGGCAGCCUUCGGUGGCGCGAUAGCGCCAACGUUCUCAACUAUGACACGCCAAACGCGUGCUCCGUUGAAUGGAGUUUAUCAUG | -0.604
GGAUCUUCUCGAUCUAACAAAAAAGACAAAUCUGCCACAAAGCUUGAGCGCAUCUUCGGAUGCAGAGGCGGCAGCCUUCGGAGGUGCAAUAUCGCCAACGUUCUCAACUAUGACACGCAAAACGCGUGCUCCAUUGAAUGUAGUUUAUCAUG | ≤ -4.2
GGAUCUUCUCGAUCUAACAAAAAAGACAAAUCUGCCACAAAGCUUGAGGGCAAUUUCGGAUGCAGAGGCGGCAGCCUUCGGUGGCGCGAUAGCGCCAACGUUCUCAACUAUGACACGCAAAACGCGUGCUCCGUUGAAUGGAGUUUAUCAUG | -2.09
GGAUCUUCUCGAUCUAACAAAAAAGACAAAUCUGCCACAAAGCUUGAGCGCAUCUUCGGAUGCAGAGGCGGCAGCCUUCUGUGGCGCGAUAGCGCCAACGUUCUCAACUAUGACACGCAAAACGCGUGCUCCGUUGAAUGGAGUUUAUCAUG | -4.02
GGAUCUUCUCGAUCUAACAAAAAAGACAAAUCUGCCACAAAGCUUGAGGGGAUCUUCGGAUGCAGAGGCGGCAGCCUCCGGUGGCGCGAUAGCGCGAACGUUCUCAACUAUGACACGCAAAACGCGUGCUCCGUUAAAUGGAGUUUAUCAUG | ≤ -4.2
GGAUCUUCUCGAUCUAACAAAAAAGACAAAUCUGCCACAAAGCUUGAGGGCAUCUUCGGAUGUAGAGGCGGCAGCCUUCGGUGGUGCGAUAGCGCCAACGUUCUCAACUAUGACACGCAAAACGCGUGCUCCGUUGAAUGGAGUUUAUCAUG | -0.955
GGAUCUUCUCGAUCUAACAAAAAAGACAAAUCUGCCACAAAGCUUGAGGCCAUCUUCGGAUGCAGAGGCGGCAGCCUUCGGUGGCGCGAUAGCGCCAACGUUCUCAACUAUGACACGCAAAACGCGUGCUCCGUUGAAUGGAGUUUAUCAUG | -2.28
GGAUCUUCUCGAUCUAACAAAAAAGACAAAUCUGCCACAAAGCUUGAGGGCAUCUUCGGAUGCAGAGGCGGCAGCCUUCGGUGGCGCGAUAGAGCCAACAUUCUCAACUAUGACACGCAAAACGCGUGCUCCGUUGAAUGGAGUUUAUCAUG | ≤ -4.2
GGAUCUUCUCGAUCUAACAAAAAAGACAAAUCUGCCACAAAGCUUGAGCGCAUCUUCGGAUGCAGAGGCGCCAGCCUUCGGUGGCGCGAUAGCGCCAACGUUCUCAACUAUGACACGCAAAACGCGUGCUCCGUUGAAUGGAGUUUAUCAUG | ≤ -4.2
GGAUCUUCUCGAUCUAACAAAAAAGACAAAUCUGCCACAAAGCUUGAGGGCAUCUUCGGAUGCAGAGGCGGCAGCCUUCGGUGGCGAGAUAGCGCCAACGUUCUCAACUAUGACACGCAAAACGCAUGCUCCGUUGAAUGGAGUUUAUCAUG | ≤ -4.2
GGAUCUUCUCGAUCUAACAAAAAAGACAAAUCUGCCACAAAGCUUGAGCGCAUCUUCGGAUGCAGAGGCGGCAGCCUUCGGUGGCGCGAUAGCGCCAACGUUCUCAACUAUGACACGCAAAACGCGUGCUCCGUUGAAUGGAGUUUAACAUG | ≤ -4.2
GGAUCUUCUCGAUCUAACAAAAAAGACAAAUCUGCCACAAAGCUUGAGGGCAUCUUCGGAUGCAGAGGCGGCAGCCUUCGGUGGCGCGAUAGCGCCAACGUUCUCAACUAUGACACGCAUAACGCGUGCUCCGUUGAAUGGAGUUUAUCAUG | -0.63
GGAUCUUCUCGAUCUAACAAAAAAGACAAAUCUGCCACAAAGCUUGAGCGCAUCUUCGGAAGCAGAGGCGGCAGCCUUCGGUGGCACGUUAGCGCCAACGUUCUCAACUAUGACACGCAAAACGCGUGCUCCGUUGAUUGGAGUUUAUCAUG | ≤ -4.2
GGAUCUUCUCGAUCUAACAAAAAAGACAAAUCUGCCACAAAGCUUGAGGGCAUCUUCGGAUGCAGAGGCGACAGCCUUCGGUGGCGCGAUAGCGCCAACGUUCUCAACUAUGACACGCAAAACGCAUGCUCCGUUGAAUGGAGUUUAUCAUG | ≤ -4.2
GGAUCUUCUCGAUCUAACAAAAAAGACAAAUCUGCCACAAAGCUUGAGGGCAUCUUCGGAUGCAGAGGCGGCAGCCUUCGGUGGCGCGAUAGCGCCAACGUUCUCAACUAUGACUCGCAAAACGCGUGCUCCGUUGAAUGGAGUUUAUCAUG | -2.35
GGAUCUUCUCGAUCUAACAAAAAAGACAAAUCUGCCACAAAGCUUGAGCGCAUCUUCGGAUGCAGAGGCGGCAGCCUUCGGUCGCGCGAUAGCGGCAACGAUCUCAACUAUGACACGCAAAACGCGUGCUCCGUUGAAUGGAGUUUAUCAUG | ≤ -4.2
GGAUCUUCUCGAUCUAACAAAAAAGACAAAUCUGCCACAAAGCUUGAGGGCAUCUUCGGUUGCAGAGGCGGCAGCCUCCGGUGGCGCGAUAGCGACAACGUUCUCAACUAUGACACGCAAAACGCGUGCUCCGUUGAAUGGCGUUUAUCAUG | ≤ -4.2

— the RNAGym collection of RNA variant scans (doi:10.1073/pnas.2313332121)
